Measurements taken from patent US20210115121A1.

Target: human Tau P301S from brain of P301S Tau transgenic mice (human) (UniProt P10636)
Experiment: cell-based or functional assay

human Tau P301S from brain of P301S Tau transgenic mice (human), sequence (P10636 other isoform, or with tags, fused parts or gaps P301S P301S P301S P301S): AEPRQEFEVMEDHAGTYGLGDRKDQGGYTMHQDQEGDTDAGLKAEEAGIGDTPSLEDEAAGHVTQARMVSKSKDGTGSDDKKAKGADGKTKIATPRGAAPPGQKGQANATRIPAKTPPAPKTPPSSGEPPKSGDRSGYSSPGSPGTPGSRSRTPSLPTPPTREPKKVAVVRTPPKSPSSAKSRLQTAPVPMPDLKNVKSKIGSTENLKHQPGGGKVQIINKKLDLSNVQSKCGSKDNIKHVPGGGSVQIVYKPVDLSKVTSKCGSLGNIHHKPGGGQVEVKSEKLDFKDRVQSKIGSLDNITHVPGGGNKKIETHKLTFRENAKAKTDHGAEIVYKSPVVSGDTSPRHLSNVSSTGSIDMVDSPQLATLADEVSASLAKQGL

IC50 (cellular Tau aggregation assay): 2 nM | Imax (maximal efficacy at 300 nM, cellular Tau aggregation assay): 93%
B1: AB1 having a rat VL of SEQ ID NO: 7 and a rat VH of SEQ ID NO.:8 (antibody, IgG1, V domains shown)
VH: EVKLEESGPGLMQPSETLSLTCTVSGFSLTSNDIAWVRQPLGKGLVWMGTIWTDGSTNYNSAVQSRLSISRDTSKSQFFLKMNSLQPEDTGTYYCARHRLYYGAFDYWGQGTMVTVS
VL: DIVMTQTPVSLSVTLGDQASISCRSSQSLEYSDGYTYLEWYLQKPGQSPQLLIYEVSNRFSGVPDRFIGSGSGTDFTLKISRVEPEDLGVYYCFQATHNPYTFGAGTKLEIK
